In doi:10.1101/2020.05.04.077941 (bioRxiv, 2020):

Target: purified human recombinant HGF (human, UniProt P14210 32-728)
Assay: far-Western, overlay or dot blot

Chain of purified human recombinant HGF (P14210 32-728): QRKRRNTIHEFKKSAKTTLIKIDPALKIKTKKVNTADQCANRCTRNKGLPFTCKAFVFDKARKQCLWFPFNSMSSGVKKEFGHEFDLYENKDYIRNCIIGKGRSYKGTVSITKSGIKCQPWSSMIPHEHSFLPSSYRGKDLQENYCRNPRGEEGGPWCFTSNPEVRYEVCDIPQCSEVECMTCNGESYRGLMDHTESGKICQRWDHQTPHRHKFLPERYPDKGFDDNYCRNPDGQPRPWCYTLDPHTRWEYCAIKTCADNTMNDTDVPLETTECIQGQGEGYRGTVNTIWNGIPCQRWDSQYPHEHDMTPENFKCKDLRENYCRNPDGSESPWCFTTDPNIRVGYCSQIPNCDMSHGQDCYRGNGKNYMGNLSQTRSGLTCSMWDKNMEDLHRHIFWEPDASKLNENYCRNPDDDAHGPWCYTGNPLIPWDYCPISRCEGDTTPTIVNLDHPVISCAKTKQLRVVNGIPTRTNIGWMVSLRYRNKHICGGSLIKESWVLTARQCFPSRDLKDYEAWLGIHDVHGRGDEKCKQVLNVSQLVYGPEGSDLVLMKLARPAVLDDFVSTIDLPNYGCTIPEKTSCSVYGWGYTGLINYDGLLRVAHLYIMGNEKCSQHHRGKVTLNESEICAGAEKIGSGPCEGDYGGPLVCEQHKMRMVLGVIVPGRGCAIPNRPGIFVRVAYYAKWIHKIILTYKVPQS

Row | Binder | binding result
1 | QEGERVVFTCQATANPEIL [NEPH1-P1 peptide] | binds
2 | PDITILLSGQTISDISANVNEGSQQKL [NEPHRIN-P1 peptide] | binds
